B1: probe 1 mutant competitor (dsDNA)
DNA 1: AATCCCATCAAATCATCCAAAAAAAAAT
DNA 2: ATTTTTTTTTGGATGATTTGATGGGATT
B2: probe 2 mutant competitor (dsDNA)
DNA 1: ACTAAAGAGAGCTGCTGCTACGTACTA
DNA 2: TAGTACGTAGCAGCAGCTCTCTTTAGT
B3: Bsr-d1 promoter probe 2 (dsDNA)
DNA 1: ACCGCTCGCTGCTGCTGCTACGTACTA
DNA 2: TAGTACGTAGCAGCAGCAGCGAGCGGT
B4: Bsr-d1 promoter probe 1 (dsDNA)
DNA 1: AATCCCATCAAATCATCCACCGCTCGCT
DNA 2: AGCGAGCGGTGGATGATTTGATGGGATT
B5: Bsr-d1 promoter probe 5 (dsDNA)
DNA 1: GGTTTTACGACGACGGCAACGGGGACAGAT
DNA 2: ATCTGTCCCCGTTGCCGTCGTCGTAAAACC
B6: Bsr-d1 promoter probe 4 (dsDNA)
DNA 1: AGCTTGATTAATTAGGTTTTACGACGAC
DNA 2: GTCGTCGTAAAACCTAATTAATCAAGCT
B7: Bsr-d1 promoter probe 3 (dsDNA)
DNA 1: CTACGTACTATACAGCTTGATTAATTAG
DNA 2: CTAATTAATCAAGCTGTATAGTACGTAG

The binders below were run against T1, His-MoSPAB1ΔSP (Magnaporthe oryzae, UniProt G4N0C3 22-298) (assay: competition; […], buffer not stated; […]). Conditions: protein: recombinant; tags: His, ProS2 (pCold-ProS2); blunt.
B1: no binding.
B2: no binding.

The binders below were run against T1, His-MoSPAB1ΔSP (assay: EMSA; […], buffer not stated; […]). Conditions: protein: recombinant; tags: His, ProS2 (pCold-ProS2); label: 5' biotin (both strands); blunt.
B3: binds.
B4: binds.
B5: binds.
B6: binds.
B7: binds.

Reference: article PMC10728069
